# Experimental data as given in article PMC5584245 (Oncotarget, 2017).
# T1: CD24-GST (Homo sapiens, UniProt P25063)
# T1 construct: cluster of differentiation 24 (CD24) fused to GST; also called GST-CD24
# T1 chain: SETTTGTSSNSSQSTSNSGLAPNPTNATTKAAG
# T2: membrane CD24 on hepatoma cells (Huh-7, BEL-7402) (Homo sapiens, UniProt P25063)
# T2 construct: cluster of differentiation 24 (CD24), GPI-linked membrane protein, endogenous on human hepatoma cell lines; also called CD24 receptors; CD24 ligand; source: endogenous, on Huh-7 and BEL-7402 cells
# T2 chain: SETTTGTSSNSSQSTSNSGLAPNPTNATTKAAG
# Legend:
# CD24-GST = target: T1, CD24-GST; test: SPR; Biacore X100; CD24-GST flowed over immobilized antibody; 1:1 binding model; procedure as in ref. 45; conditions: both partners purified
# [1] = target: T2, membrane CD24 on hepatoma cells (Huh-7, …); test: flow cytometry on cells; antibody on Huh-7 and BEL-7402 hepatoma cells, also after RNA interference against CD24; procedure as in ref. 12; conditions: one partner purified
Kd (CD24-GST) [nM],koff (CD24-GST) [s⁻¹],kon (CD24-GST) [M⁻¹ s⁻¹],binding rate to BEL-7402 cells [1] [%],binding rate to Huh-7 cells [1] [%],Binder
0.57,,,,,"hG7-BM3 (hVH-B2, hVL-B1) (antibody, V domains shown) VH: QVQLVESGGGVVQPGRSLRLSCAASGFTFSRYWMSWVRQAPGKGLEWIAEINPDSSTINYTPSLRDKFTISRDNSKNTLYLQMSSLRAEDTAVYYCARQGDYWGQGTLVTVSS VL: DIVMTQTPLSLSVTPGQPASISCKSSQSLLHSDGKTYLNWYLQKPGQSPQRLIYLVSKLDSGVPDRFSGSGSGTDFTLKISRVEAEDVGVYYCWQGAHFPYTFGQGTKLEIK"
0.191,0.000336,1.76e+06,79.3,88.4,"chimeric antibody cG7 (antibody, V domains shown, murine VH of G7mAb (G7mAb-VH); human heavy-chain constant region of the chimeric antibody; murine VL of G7mAb (G7mAb-VL); human light-chain constant region of the chimeric antibody; Chimeric: murine G7mAb variable domains on human constant regions; The vectors of the laboratory hold IgG1 H and L chains and the constant region of the humanized antibodies is from Cetuximab; also called parental …) VH: QVKLEESGGGLVQPGGSLKISCAASGFDFSRYWMSWVRQAPGKGLEWIGEINPDSSTINYTPSLRDKFIISRDNAKNTLYLQMSKVRYEDTSLYYCARQGDYWGQGTSVTVSS VL: not shown"
